Assay: label from the status in PepcDB records

Sequence | protein production
MNSFYSQEELKKIGFLSVGKNVLISKKASIYNPGVISVGNNVRIDDFCILSGKVTIGSYSHIAAYTALYGGEVGIEMYDFANISSRTIVYAAIDDFSGNALMGPTIPNQYKNVKTGKVILKKHVIIGAHSIIFPNVVIGEGVAVGAMSMVKESLDDWYIYVGVPVRKIKALEHHHHHH | not failed
SILKIEKVLKRMREIKNELLQAQNPSELYLSSKTELQGLIGQLDEVSLEKNPCIREARRRAVIEVQTLITYIDLKE | not failed
MNIDLTPYYAEPGEQPFSARRMAMPWRNHVPLSPEQIPAGWQTLKQQSVPARKRLLYLHIPFCATHCTFCGFYQNKLRDDSTATYTRYLLQELAMEADSPLHQSAPIHAVYFGGGTPTALAADELSQIIRAIRTSLPLAPDCEITVEGRAMDFDDERIDACLDAGANRFSIGIQTFDTRIRQRMARTSDKQQSIRFLERLCGRDRAAVVCDLMFGLPGQTPEIWREDLAIVSDLPLDGVDLYALNLLPTTPLAKAAENQRVALPDVVARRDFYRTGAAFLADSGWHQLSNSHWARTTRERNLYNLLIKQGADCLAMGSGAGGNINGQAYMMERSLERYYQQIDQGQKPIMMMTPASSTGPWQHQLQAGIEVGRIKLPQLTQHARELQPLLSQWHQAGLTCDDSTCLRLTNDGRFWANNLMQALQQIIPQLNAEEHAHLEHHHHHH | not failed
MTNLISGSSYPTANLYFMQVWKIECWLRAHEFSVDETICQMVEIMTLKFEKYWEEYSDILAIAAVFDPRLKLKCLEYCFSTLDRLTSKSRLAHVRSKIYKLFKAYKKRPSSITSSSQVETLEEDIPAGYSGFYAFVSQKVGSSGKSELDIYLGEPTLDMAAFRHFNVLAYWKDNSCRFKELSSMACDVLSIPITTVASESSFSIGSGVLSKYRSSLLPENIQALICTRNWLRGFPKEGEEEEVEEEKEEEKEEEKEEA | failed
SSSDIAYIYVNNKKSYLKDKKVRQALTYGLDRKKYVDTALQGYGSVANVPIAPVSWAYTEEGINKYPHDVEKAKKLLDEAGWKVGSDGVREKDGQKLKLTYYASNTGKTNDIFIPIAKESYKEIGVELNPELMDFNTMLSKVGKGDYDLAAVSTPGISDPSEVVSDYLSTNPKSDTGYSNPKVDDLIVKGIGTTDIEKRKAIYKELYKELSDDPPVILLNYRK | failed
MQESWVEGVEDIRMLGSSLRNDSAAAGRACARTRAGPPAESRKKKVQAERRRREGVANAPTRALRFLRARRAWSPRLAAPGPLTLVAEGEEGRNRVPAAKHPCLRTMSPEPAPPEPQGVRSSLEEPSAEPLGQGSAAFLAGDYEVAAELFRSLLAGLAQPERGLCLQLGEALARAGRLPEAIGAFRGAALLGPLQPGELSELASGLARALGLREKRPPVAARPGGCASGTSGPVAPRDLLGCPRCGRLLYKPVTLSSGLTVCKRCVEQVPVRAQARRVNVVLSGLLERCFPAECRLRRLACQARGLQRQQQPEAALLRCQQALDMAPDDSSLLLLRAELYLTMKNYEQALQDADTVCQREPLLTKGHHIKAQILSGLGRNKEVLKEFIYCLALNPECNSAKKETQKVICEVFFSASENEQQNSAPSTQTGPKALCDGQMSPQNPLEEAGGHANADSPKTPSEKPDVPENTNSSVLYFILGLHCEEDKKALEGVIPAAPSGTLKRQLPSDAEDKELDVNTPEKIPKKDADSSPQRNANSLEEEPEFTIDATDFECALCMRLLFEPVTTPCGHTFCLKCLERCLDHAPHCPLCKDKLSELLATRNFNVTVLTEELIFRYLPDELSDRKRVYDEEMSELSHLTRDVPIFVCAMAFPTVPCPLHVFEPRYRLMIRRCMETGTKRFGMCLSAENAGISEYGCMLEIKDVRTFPDGSSVVDAVGISRFRVLSHRHRDGYNTADIEYLEDEKVEGAEFEELTALHESVYQQSVSWFASLQDHMKKQILSHFGSMPDREPEPQSNSSGPAWSWWILAVLPLERKAQLAILGMGSLKERLLAIRRILVIITRKLNSRQEMANNAQRDN | failed
MTAVRRIRAAALPDLPDASWSNALLVGEELVMSGMTAHPATRQAAERGAALDAHAQALVVLGKVKALLEAAGGHVGNLYKLNVYVTRIADKDAIGRARQEFFAGQGTFPASTLVEVSGLVFPELLVEIDAWARLDIDLANCDEA | not failed
MSNGNKSEKKTLILALVAGMCGDALLSWLTMSEVSFSIFPLIALVLAVQALYQEYLNNPVSEDIPLVGLACFFVGAFGHSAFIKAQYPEAGSNFFAIMVSMILLAWIGKKLGFMEKKTSAE | failed
MAGSVADSDAVVKLDDGHLNNSLSSPVQADVYFPRLIVPFCGHIKGGMRPGKKVLVMGIVDLNPESFAISLTCGDSEDPPADVAIELKAVFTDRQLLRNSCISGERGEEQSAIPYFPFIPDQPFRVEILCEHPRFRVFVDGHQLFDFYHRIQTLSAIDTIKINGDLQITKLG | failed
MTEQERLELEAAAFRRLVAHLDSRKDVQNIDLMNLSGFCRNCLSKWYKAAADEKHIDITLDDAREVVYGMPYSEWKANYQKEASAEQQAAFVKESKHD | not failed
MEFTTGLMSLDTALNEMLSRVTPLTAQETLPLVQCFGRILASDVVSPLDVPGFDNSAMDGYAVRLADIASGQPLPVAGKSFAGQPYHGEWPAGTCIRIMTGAPVPEGCEAVVMQEQTEQMDNGVRFTAEVRSGQNIRRRGEDISAGAVVFPAGTRLTTAELPVIASLGIAEVPVIRKVRVALFSTGDELQLPGQPLGDGQIYDTNRLAVHLMLEQLGCEVINLGIIRDDPHALRAAFIEADSQADVVISSGGVSVGEADYTKTILEELGEIAFWKLAIKPGKPFAFGKLSNSWFCGLPGNPVSATLTFYQLVQPLLAKLSGNTASGLPARQRVRTASRLKKTPGRLDFQRGVLQRNADGELEVTTTGHQGSHIFSSFSLGNCFIVLERDRGNVEVGEWVEVEPFNALFGGL | not failed
MRSHNLFGDMCEAFMTKYVMTELRPKTQTLYKSTFNKYVTPYKNIDIERYKYTDWIAYFDWVKKESSSANAGSVLKRFKAVANWAKARGQIKHSHLIDIPIKLEHHHHHH | failed
MKHIHSYYSPNNLYNKIIEGLNNLGKDLSSVTPDDLQPVDEFHIRGDIATKELIELGNFTPDMHILDVGCGVGGSTRRLSHETGCHVTGIDLSDEYIDAAERLTQLLNMQARVKFNVGSALELPYADNTFDGAWSIQMNMNVEDKLGWLKEMYRVLKPGARAVLYEVCGHEEKTIYFPVPWAQDSSMSFLIPKEAFRDLIASTGFKIEVWNDKSDLAQKAFARMREPTGESTLPELGLHMLIGNDIKTKAYNMRRNLDDERISLIEILAIKPS | failed
MVPRVPQPGIWCPAVTFFDSKTDTLDLASQERYYAYLARSGLTGLVILGTNAEAFLLTREERAQLIATARKAVGPDFPIMAGVGAHSTRQVLEHINDASVAGANYVLVLPPAYFGKATTPPVIKSFFDDVSCQSPLPVVIYNFPGVCNGIDLDSDMITTIARKNPNVVGVKLTCASVGKITRLAATLPPAAFSVFGGQSDFLIGGLSVGSAGCIAAFANVFPKTVSKIYELYKAGKVDQAMELHRKAALAESPCKSGIATTKYAAAIFSAKAAGIEDAEEKLRPRKPYDPPSEAAKQEVRKVMAEVAAIEAGLS | not failed
MGTLGRAIYTVGNWIRGTGQALDRVGSLLQGSHRIEEHLSRHRTLMNVFDKSPLVDKDVFVAPSASVIGDVQIGKGSSIWYGCVLRGDVNNISVGSGTNIQDNTLVHVAKTNISGKVLPTLIGDNVTVGHSAVIHGCTVEDDAFVGMGATLLDGVVVEKHAMVAAGSLVKQNTRIPSGEVWGGNPAKFMRKLTDEEIVYISQSAKNYINLAQIHASENSKSFEQIEVERALRKKYARKDEDYDSMLGITRETPPELILPDNVLPGGKPVAKVPSTQYF | failed
MVNEYKRIVLLRGLECINKHYFSLFKSLLARDLNLERDNQEQYTTIQIANMMEEKFPADSGLGKLIEFCEEVPALRKRAEILKKERSEGETSLEKNGQEAGPATPTSTTSHMLASERGETSATQEETSTAQAGTSTAQAGTSTAQAGTSTA | not failed

Source: a protein production outcome set (Wang et al. 2014)
